Assay [1] deals with T1, mouse ROBO4 (pCI-mROBO4-transfected HEK293 cells) (mouse, UniProt Q8C310 28-1012).
T1 sequence: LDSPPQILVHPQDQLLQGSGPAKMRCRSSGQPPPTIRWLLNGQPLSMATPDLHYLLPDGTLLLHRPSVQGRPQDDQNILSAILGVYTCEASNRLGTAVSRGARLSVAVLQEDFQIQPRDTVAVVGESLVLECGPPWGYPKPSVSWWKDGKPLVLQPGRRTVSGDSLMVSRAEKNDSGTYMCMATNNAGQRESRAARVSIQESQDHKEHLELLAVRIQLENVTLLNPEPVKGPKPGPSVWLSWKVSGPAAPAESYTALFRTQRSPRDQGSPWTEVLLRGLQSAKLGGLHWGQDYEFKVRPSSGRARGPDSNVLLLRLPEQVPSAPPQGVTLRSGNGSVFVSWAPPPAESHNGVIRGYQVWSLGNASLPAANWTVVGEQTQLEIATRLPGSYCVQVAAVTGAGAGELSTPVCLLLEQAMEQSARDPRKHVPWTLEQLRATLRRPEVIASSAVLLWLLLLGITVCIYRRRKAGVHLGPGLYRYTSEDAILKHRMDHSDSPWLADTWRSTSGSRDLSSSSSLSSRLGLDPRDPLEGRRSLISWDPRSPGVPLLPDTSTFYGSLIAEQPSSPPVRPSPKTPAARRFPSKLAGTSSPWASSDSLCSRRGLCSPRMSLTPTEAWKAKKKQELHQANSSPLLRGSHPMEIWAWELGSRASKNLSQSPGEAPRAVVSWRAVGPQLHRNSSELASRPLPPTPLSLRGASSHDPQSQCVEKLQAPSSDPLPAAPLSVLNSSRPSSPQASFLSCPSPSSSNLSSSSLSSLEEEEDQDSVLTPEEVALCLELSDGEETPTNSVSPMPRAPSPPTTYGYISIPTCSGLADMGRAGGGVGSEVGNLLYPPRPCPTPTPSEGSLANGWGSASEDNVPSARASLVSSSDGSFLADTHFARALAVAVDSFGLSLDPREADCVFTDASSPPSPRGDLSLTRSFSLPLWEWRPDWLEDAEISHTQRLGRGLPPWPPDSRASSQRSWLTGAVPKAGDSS
Kind of assay: flow cytometry (FC500), HEK293 cells transfected with pCI-mROBO4, FITC goat anti-human IgG Fc; control histogram IgG (human IgG). A general note: A flow cytometer gives signals particle by particle.

Assay [2] concerns the target T2, N-terminal FLAG-tagged human ROBO4 extracellular region/domain deletion variant hROBO4-341 (human, UniProt Q8WZ75 341-1007).
T2 construct: On transfected HEK293 cells; also called pCI-FLAG-hROBO4-341; pCI-hROBO4-341
T2 sequence: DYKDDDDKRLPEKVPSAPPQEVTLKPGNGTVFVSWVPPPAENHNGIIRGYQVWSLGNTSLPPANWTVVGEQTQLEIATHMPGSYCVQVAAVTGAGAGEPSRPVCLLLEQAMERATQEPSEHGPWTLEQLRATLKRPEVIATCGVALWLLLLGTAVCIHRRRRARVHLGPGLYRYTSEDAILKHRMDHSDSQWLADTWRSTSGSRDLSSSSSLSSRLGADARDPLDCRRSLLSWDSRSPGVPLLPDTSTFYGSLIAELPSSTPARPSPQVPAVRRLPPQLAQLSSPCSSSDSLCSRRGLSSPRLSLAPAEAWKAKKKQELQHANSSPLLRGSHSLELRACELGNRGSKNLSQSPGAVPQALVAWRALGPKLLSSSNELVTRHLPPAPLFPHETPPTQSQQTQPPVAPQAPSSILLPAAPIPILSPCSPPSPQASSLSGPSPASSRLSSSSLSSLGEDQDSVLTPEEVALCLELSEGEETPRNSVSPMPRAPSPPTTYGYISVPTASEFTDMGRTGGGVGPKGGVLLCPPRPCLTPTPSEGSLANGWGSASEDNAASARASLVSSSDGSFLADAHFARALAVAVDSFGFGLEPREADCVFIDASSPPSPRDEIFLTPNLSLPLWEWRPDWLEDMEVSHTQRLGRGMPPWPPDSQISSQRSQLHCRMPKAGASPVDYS
Kind of assay: flow cytometry, HEK293 cells transfected with pCI-FLAG-hROBO4-341, anti-mouse IgG FITC; control histogram IgG (Mouse IgG2a). The method, then:
HEK293 cells were inoculated at a concentration of 1.5×10⁶ cells/dish to a 60-mm dish (manufactured by Corning Inc.) and cultured overnight in a DMEM medium containing 10% FBS at 37° C. under 5% CO₂ conditions. […] On the next day, the expression vector-transfected cells were treated with TrypLE Express (manufactured by Life Technologies Corp.), washed with PBS containing 5% FBS, and then suspended in PBS containing 5% FBS. The obtained cell suspension was used in flow cytometry analysis.
Each cell suspension prepared in 4)-5-1 was centrifuged, and the supernatant was removed. Then, MAb1, a positive control Monoclonal ANTI-FLAG M2 antibody produced in mouse, or a negative control Mouse IgG2a was added at a concentration of 10 μg/mL to 2×10⁵ expression vector-transfected cells, and the resulting suspension was left standing at 4° C. for 1 hour. The cells were washed once with PBS containing 5% FBS. Then, Anti-Mouse IgG FITC conjugate diluted 1000-fold with PBS containing 5% FBS was added thereto, and the resulting suspension was left standing at 4° C. for 1 hour. […] Data was analyzed using Flowjo. The histogram of FITC fluorescence intensity was prepared. The antibody was determined to bind to a cell when the histogram of MAb1 was shifted to a stronger fluorescence intensity region compared with the histogram of the negative control Mouse IgG2a. […]

B1: humanized MAb1 antibody H-1143 (antibody, human IgG2, kappa, V domains shown)
VH: EVQLVESGGGLVQPGGSLRLSCAASGFTFSTYAMSWVRQAPGKGLEWVATISQGGTYTYYPDSVKGRFTISRDNAKNTLYLQMNSLRAEDTAVYYCARLIYYDYLDYWGQGTLVTVSS
VL: DIVMTQSPLSLPVTLGEPASISCRSSQSLENENKNLYLNWYLQKPGQSPQLLIYRVSNRFSGVPDRFSGSGSGTDFTLKISRVEAEDVGVYYCLQVTHVPWTFGPGTKVDIKR
notes: Human IgG2 / kappa constant regions; also called hMAb1-H2-type heavy chain + hMAb1-L2-type light chain
B1: in assay [1], the binding result is listed as “no binding (tested: 10 µg/mL)”.

B2: anti-ROBO4 mouse monoclonal antibody MAb1 (antibody, mouse IgG1, V domains shown)
VH: EVQLVESGGGLVKPGGSLKLSCAASGFTFSTYAMSWVRQTPEKRLEWVATISNGGTYTYYPDSVKGRFTISRDNAENTLYLQMSSLRSEDTAMYFCARLIYYDYLDYWGHGTTLTVSS
VL: DAVMTQTPLSLPVSLGDQASISCRSSQSLENSNGNTYLNWYFQKPGQSPQLLIYRVSNRFSGVLDRFSGSGSGTDFTLKISRVEAEDFGVYFCLQVTHVPWTFGGGTKLEIKR
notes: Mouse IgG1 (gamma1), kappa light chain, purified from hybridoma supernatant; also called parent antibody MAb1
Regarding B2, the binding result in assay [2] is listed as “no binding (tested: 10 µg/mL)”.

The record behind these values is patent US20150098945A1 (Daiichi Sankyo, published 2015).
